{"source": "patent US12559863B2", "about": "“Macrocyclic modulators of disease associated protein misfolding and aggregation” (RESQ BIOTECH, priority 2017, dated 2026)", "key": {"SOD1(A4V)-GFP": {"target": "T1, SOD1(A4V)-GFP (Homo sapiens, UniProt P00441, A5V)", "T1 construct": "polyHis; expressed in transfected cells; host or cells: E. coli Origami 2(DE3) (BL21(DE3) for the FACS screen)", "T1 sequence (P00441 whole entry A5V)": "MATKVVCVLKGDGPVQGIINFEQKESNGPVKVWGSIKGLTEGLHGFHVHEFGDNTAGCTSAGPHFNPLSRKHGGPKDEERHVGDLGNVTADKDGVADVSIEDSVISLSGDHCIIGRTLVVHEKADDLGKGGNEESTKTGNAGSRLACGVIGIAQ", "assay": "Fluorescence of E. coli cells co-expressing SOD1(A4V)-GFP and cyclic peptide", "type": "cell-based", "settings": "co-expression of cyclic peptide; compared to random cyclic peptides from initial library", "description": "Electrocompetent E. coli BL21(DE3) cells (Novagen, USA) carrying either the expression vector pETSOD1(A4V)-GFP, which produces SOD1(A4V)-GFP under control of the strong bacteriophage T7 promoter, or pETAβ42-GFP, which produces Aβ42-GFP under control of the T7 promoter, were co-transformed with the combined pSICLOPPS-NuX1X2X3-X5 vector library. Approximately 10^8 transformants carrying both the vector library and either pETSOD1(A4V)-GFP or pETAβ42-GFP vectors were harvested, pooled together, and grown in Luria-Bertani (LB) liquid medium containing either 0.005% (pETSOD1(A4F)-GFP) or 0.002% (pETAβ42-GFP) L-arabinose—the inducer of cyclic peptide production—at 37° C. with shaking. When the optical density at 600 nm (OD600) of the bacterial culture was about 0.5, 0.01 (pETSOD1(A4F)-GFP) or 0.1 (pETAβ42-GFP) mM isopropyl-β-D-thiogalactoside (IPTG) was added to the medium to induce overexpression of the reporter. […] The isolated cells were re-grown and screened for additional rounds in an identical manner until the desired enrichment in high-fluorescence clones was achieved.\nFor SOD1 or SOD1-GFP production, BL21(DE3) (Novagen, USA) or Origami 2(DE3) cells (Novagen, USA) were transformed with the corresponding SOD1- or SOD1-GFP-encoding vector, either with the appropriate pSICLOPPS vector or alone. […]\nBacterial cells corresponding to 1 mL culture with OD600=1 were harvested by centrifugation and re-suspended in 100 μL phosphate-buffered saline (PBS), transferred to a 96-well FLUOTRAC 200 plate (Greiner Bio One International, Austria), and their fluorescence was measured using a TECAN Safire II-Basic plate reader (Tecan, Austria). Excitation was set at 488 nm and emission was measured at 510 nm."}, "SOD1(A4V)": {"target": "T2, SOD1(A4V) (Homo sapiens, UniProt P00441, A5V)", "T2 construct": "polyHis; made in house; host or cells: E. coli Origami 2(DE3)", "T2 sequence (P00441 whole entry A5V)": "as above", "assay": "Filter retardation assay of SOD1(A4V)", "type": "biochemical", "settings": "25 d at 37° C.", "experimental": "SOD1 or mutants thereof were overexpressed from the appropriate pET-SOD1 or PASK-SOD1 vectors in E. coli Origami 2(DE3) cells in LB medium containing 50 μg/mL kanamycin (for pET-SOD1) or 100 μg/mL ampicillin (for pASK-SOD1), 200 μM CuCl2, and 200 μM ZnCl2 by the addition of 0.01 mM IPTG (for pET-SOD1) or 0.2 μg/mL anhydrotetracycline (aTc) (for pASK-SOD1), either at 37° C. for 2-3 h or at 18° C. for about 16 h. Origami 2(DE3) cells were utilized in order to provide an oxidizing cytoplasmic environment in order to promote correct formation of disulfide bonds, which are required for proper SOD1 folding and function. Under these conditions, bacterially produced SOD1 is produced in dimeric and enzymatically active form, while it simultaneously co-exists with misfolded, soluble and insoluble SOD1 oligomeric/aggregated species (FIG. 3C). Thus, the acquired protein is found in a state that resembles the conditions encountered in human cells under stressful or pathogenic conditions. The appearance of misfolded SOD1 oligomers/aggregates is enhanced with increasing incubation temperatures. […]"}, "Aβ42": {"target": "T3, Aβ42 (Homo sapiens, UniProt P05067)", "T3 construct": "one of the secondary products yields a 42-amino-acid-long peptide (Aβ42); purchased Eurogentec, Belgium; host or cells: chemical synthesis", "assay": "Circular dichroism of Aβ42 with cyclic peptide", "type": "biochemical", "settings": "50 μM Aβ, 33° C., 30 d", "experimental": "Synthetic Aβ40 and Aβ42 peptides were gently dissolved without vortexing in doubly deionized water to a final concentration of 100 μM. These solutions were then diluted by PBS addition (10 mM, pH 7.33) to achieve a final Aβ concentration of 50 μM.\nAppropriate amounts of synthetic cyclic peptides were added to either 40 μM SOD1(A4V) or 50 μM Aβ solutions at the desired cyclic peptide:target protein molar ratio. SOD1(A4V) structural changes were monitored for 90 d at 25° C., under quiescent conditions. Aβ structural changes were monitored for 30 d at 33° C. under quiescent conditions. CD spectra in the range 190-260 nm were recorded on a JASCO J-715 spectropolarimeter (Jasco Co., Japan) using quartz cuvettes with 1 mm path length. Each reported spectrum is the average of three scans at a rate of 100 nm·min^−1 and a resolution of 0.5 nm."}}}
{"substance": "cyclo-TWSVW (cyclic) [SOD1C5-4]", "values": [{"measurement": "SOD1(A4V)-GFP fluorescence of E. coli cells", "setting": "SOD1(A4V)-GFP", "result": "highest levels of cellular SOD1(A4V)-GFP fluorescence"}, {"measurement": "formation of large, amyloid-like SOD1(A4V) aggregates by filter retardation assay", "setting": "SOD1(A4V)", "result": "dramatically decreased"}, {"measurement": "effect on aggregation process of Aβ42 (CD)", "setting": "Aβ42", "result": "did not have any effect"}]}
